Publication PMC6929626, “PET/MRI enables simultaneous in vivo quantification of β-cell mass and function” (Theranostics, 2020)

Molecular target: T1, GLP-1R (Mus musculus, UniProt O35659)
T1 construct: high expression level of glucagon-like-peptide-1 receptor (GLP-1R) on the surface of β-cells enables their specific detection and quantification in the native pancreas; from tissue; host or cells: pancreas and insulinomas of living control and RIP1-Tag2 mice
T1 sequence (O35659 22-463): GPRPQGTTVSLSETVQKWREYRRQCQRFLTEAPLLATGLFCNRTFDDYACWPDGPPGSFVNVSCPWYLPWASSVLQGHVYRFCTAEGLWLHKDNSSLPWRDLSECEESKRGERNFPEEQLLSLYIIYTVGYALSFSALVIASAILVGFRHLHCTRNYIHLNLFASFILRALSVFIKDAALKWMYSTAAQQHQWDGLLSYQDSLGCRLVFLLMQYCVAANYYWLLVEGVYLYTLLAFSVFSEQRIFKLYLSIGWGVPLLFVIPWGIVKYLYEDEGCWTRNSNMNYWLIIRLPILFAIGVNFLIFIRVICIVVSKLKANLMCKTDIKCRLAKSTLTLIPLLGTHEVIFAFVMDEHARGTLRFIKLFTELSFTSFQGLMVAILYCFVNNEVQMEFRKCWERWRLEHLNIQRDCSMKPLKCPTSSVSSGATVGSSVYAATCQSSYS
Set-up: species or system mice
Conditions: in vivo
Method: In brief, mice were fasted for 4-6 hours and anesthetized with 1-2% isoflurane/O2 gas mixture (Vetland, Louisville, KY, USA) before the in vivo measurements. A tail vein catheter was initially placed for the co-injection of 50 µL of tracer solution (0.12 MBq/g bodyweight) and 50 µL of MnCl2:Bicine solution (75 µmol/kg body weight). The animals were placed in supine position on the bed in order to attenuate the motion artifacts rising from the respiratory movements. Thus, [^64Cu]Ex4 and MnCl2 solution were co-injected i.v. as a bolus a few seconds after the beginning of dynamic PET measurements. […] PET quantification was performed by 20-min static frames acquired simultaneously with 7T MRI scanner using a compatible PET-insert or consecutively using an Inveon-PET scanner (Inveon Dedicated PET, Siemens Healthineers, Knoxville, TN, USA). […] During the acquisition, we monitored the breathing with an MR-compatible breathing sensor. […]
The volume of interest (VOI) for the entire pancreas (Pancreas^Control; Pancreas^RIP1-Tag2) and the detected insulinomas (Insulinomas^RIP1-Tag2) were manually drawn in Inveon Research Workplace (Siemens Heathineers) after co-registration of the PET images. […] The co-registered VOIs were exported and analyzed in MATLAB (R2013b; The MathWorks, Natick, MA, USA) using an in-house script. […] For the quantification, we considered voxels with R1 values between 0.4 and 10 s^-1. […]

[^64Cu]Cu-NODAGA-^40Lys-Exendin-4 [[^64Cu]Ex4]
dynamic PET curve of pancreatic uptake: stable pancreatic uptake after 20 min until 1 h
